Tests used:
[1] = molecular target: Encapsulin from Mycobacterium smegmatis with Streptavidin-tag (^StrepEncSM) (Mycobacterium smegmatis) (UniProt A0R4H0); test: FRET or BRET
[2] = molecular target: Encapsulin from Mycobacterium smegmatis with Streptavidin-tag (^StrepEncSM) (Mycobacterium smegmatis) (UniProt A0R4H0); test: in-gel fluorescence against a standard curve

## HaloTag construct carrying an encapsulin localization sequence (HaloTag-ELS)
[1]
  fluorophore binding sites per vesicle (fluorophore binding sites per vesicle): > 3
[2]
  labeled cargo proteins per capsid (labeled cargo proteins per capsid): 6.6
